# The supplement of paper PMC7877785
# ± gives the uncertainty stated by the source.
# Assay: self-splicing fitness, log relative to wild type (ln ratio); higher = more splicing; Tetrahymena group I intron in knt gene, E. coli kanamycin selection, DiMSum; sequences stand for … in CUCUCU…GGAGGGAAAAGUUAUCAGGCAUGCACCUGGUAGCUAGUCUUUAAACCAAUAGAUUGCAUCGGUUUAAAAGGCAAGACCGUCAAAUUGCGGGAAAGGGGUCAACAGCCGUUCAGUACCAAGUCUCAGGGGAAACUUUGAGAUGGCCUUGCAAAGGGUAUGGUAAUAAGCUGACGGACAUGGUCCUAACCACGCAGCCAAGUCCUAAGUCAACAGAUCUUCUGUUGAUAUGGAUGCAGUUCACAGACUAAAUGUCGGUCGGGGAAGAUGUAUUCUUCUCAUAAGAUAUAGUCGGACCUCUCCUUAAUGGGAGCUAGCGGAUGAAGUGAUGCAACACUGGAGCCGCUGGGAACUAAUUUGUAUGCGAAAGUAUAUUGAUUAGUUUUGGAGUACUCGUGGUCG
# Method in brief: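 The eight P1ex-region nucleotides of an intron in the knt kanamycin-resistance gene on pET-22b(+) were all randomised and the library put into E. coli BL21(DE3). Six replicate transformations were grown overnight at 37°C or 30°C on LB agar with or without 25 μg/mL kanamycin, together with 100 μg/mL carbenicillin, 50 μM IPTG and 0.2% rhamnose. Colonies were pooled and amplicon-sequenced on an Illumina HiSeq 2500. Fitness from DiMSum is the error-weighted combination of wild-type-normalised replicate fold changes, kanamycin over none.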
Sequence,self-splicing fitness (ln) (30 °C),self-splicing fitness (ln) (37 °C)
AUCGAGCAAUAUUACGUUUU,-4.86 ± 0.36,-1.23 ± 0.12
AUCUAGCAAUAUUACGACAG,-3.33 ± 0.3,-2.68 ± 0.31
AUCUAGCAAUAUUACGACGG,-2.58 ± 0.33,-2.23 ± 0.42
AUCUAGCAAUAUUACGAUAU,-1.15 ± 0.076,-0.605 ± 0.1
AUCUAGCAAUAUUACGAUGU,-0.781 ± 0.08,-0.0281 ± 0.11
AUCUAGCAAUAUUACGAUUA,-0.971 ± 0.11,-0.836 ± 0.11
AUCUAGCAAUAUUACGCACC,-0.201 ± 0.21,-0.886 ± 0.38
AUCUAGCAAUAUUACGCCGA,-0.962 ± 0.17,-0.198 ± 0.19
AUCUAGCAAUAUUACGCGCA,-0.448 ± 0.1,-0.485 ± 0.11
AUCUAGCAAUAUUACGCGUG,-1.23 ± 0.1,-1.01 ± 0.12
AUCUAGCAAUAUUACGCUAU,-3.15 ± 0.21,-1.49 ± 0.14
AUCUAGCAAUAUUACGGAUG,-2.12 ± 0.12,0.0806 ± 0.12
AUCUAGCAAUAUUACGGGCU,-2.22 ± 0.16,-2.49 ± 0.23
AUCUAGCAAUAUUACGGUAG,-3.92 ± 0.28,-2.13 ± 0.22
AUCUAGCAAUAUUACGGUGC,-3.09 ± 0.22,-1.4 ± 0.21
AUCUAGCAAUAUUACGUAUG,-2.41 ± 0.13,-1.55 ± 0.17
AUCUAGCAAUAUUACGUCAG,-3.18 ± 0.2,-2.34 ± 0.2
AUCUAGCAAUAUUACGUCUC,-2.8 ± 0.26,-0.391 ± 0.22
AUCUAGCAAUAUUACGUGGC,-2.58 ± 0.23,-2.92 ± 0.31
AUCUAGCAAUAUUACGUGUC,-3.9 ± 0.36,-2.64 ± 0.24
AUCUAGCAAUAUUACGUUCC,-1.16 ± 0.18,-1.47 ± 0.25
AUGAAGCAAUAUUACGAAAU,-0.819 ± 0.07,-0.46 ± 0.073
AUGAAGCAAUAUUACGAAGC,-3.46 ± 0.18,-1.89 ± 0.19
AUGAAGCAAUAUUACGAAUU,-1.58 ± 0.084,-1.25 ± 0.12

Sequence,self-splicing fitness (ln) (30 °C),self-splicing fitness (ln) (37 °C)
AUGAAGCAAUAUUACGACGA,0.221 ± 0.18,0.67 ± 0.15
AUGAAGCAAUAUUACGACGU,0.206 ± 0.076,0.735 ± 0.088
AUGAAGCAAUAUUACGAUAU,-0.294 ± 0.066,0.229 ± 0.083
AUGAAGCAAUAUUACGAUUG,-2.6 ± 0.13,-1.24 ± 0.14
AUGAAGCAAUAUUACGCACC,-0.272 ± 0.097,0.751 ± 0.18
AUGAAGCAAUAUUACGCCAA,-0.427 ± 0.086,0.0636 ± 0.11
AUGAAGCAAUAUUACGCCGG,-0.936 ± 0.11,0.108 ± 0.18
AUGAAGCAAUAUUACGCCUG,-0.59 ± 0.092,-0.209 ± 0.11
AUGAAGCAAUAUUACGCCUU,-1.9 ± 0.16,-1.01 ± 0.14
AUGAAGCAAUAUUACGCUUG,-0.527 ± 0.09,0.363 ± 0.11
AUGAAGCAAUAUUACGGACU,0.892 ± 0.12,0.27 ± 0.1
AUGAAGCAAUAUUACGGAGU,-1.4 ± 0.089,-0.447 ± 0.094
AUGAAGCAAUAUUACGGCAA,0.00287 ± 0.12,0.0978 ± 0.14
AUGAAGCAAUAUUACGGCAC,-0.455 ± 0.086,0.222 ± 0.14
AUGAAGCAAUAUUACGGCCA,0.439 ± 0.11,0.466 ± 0.18
AUGAAGCAAUAUUACGGGAC,-2.09 ± 0.32,-1.65 ± 0.43
AUGAAGCAAUAUUACGGGCA,0.212 ± 0.079,0.459 ± 0.09
AUGAAGCAAUAUUACGGGUC,-3.75 ± 0.18,-2.63 ± 0.23
AUGAAGCAAUAUUACGGGUG,-1.81 ± 0.088,-0.453 ± 0.098
AUGAAGCAAUAUUACGGGUU,-1.62 ± 0.11,-1.07 ± 0.12
AUGAAGCAAUAUUACGUACG,-0.461 ± 0.13,-0.446 ± 0.093
AUGAAGCAAUAUUACGUCAC,-2.97 ± 0.26,-1.09 ± 0.18
AUGAAGCAAUAUUACGUCCG,-0.499 ± 0.062,0.309 ± 0.086
AUGAAGCAAUAUUACGUCGA,-0.936 ± 0.1,0.22 ± 0.097

Sequence,self-splicing fitness (ln) (30 °C),self-splicing fitness (ln) (37 °C)
AUGAAGCAAUAUUACGUGUA,-1.75 ± 0.082,-0.686 ± 0.093
AUGAAGCAAUAUUACGUUAG,-1.97 ± 0.08,-0.415 ± 0.11
AUGAAGCAAUAUUACGUUCU,-0.34 ± 0.076,0.201 ± 0.092
AUGCAGCAAUAUUACGAAAG,-2.87 ± 0.23,-3.15 ± 0.4
AUGCAGCAAUAUUACGAACG,-1.7 ± 0.16,-0.0769 ± 0.12
AUGCAGCAAUAUUACGAUUC,-2.72 ± 0.14,-0.939 ± 0.17
AUGCAGCAAUAUUACGCCUC,-2.55 ± 0.2,-1.35 ± 0.14
AUGCAGCAAUAUUACGCGUC,-3.6 ± 0.2,-3.05 ± 0.16
AUGCAGCAAUAUUACGCGUU,-2.4 ± 0.088,-2.7 ± 0.19
AUGCAGCAAUAUUACGCUGC,-4.54 ± 0.2,-3.94 ± 0.19
AUGCAGCAAUAUUACGCUGU,-3.46 ± 0.21,-2.63 ± 0.45
AUGCAGCAAUAUUACGGGUG,-3.33 ± 0.14,-1.62 ± 0.12
AUGCAGCAAUAUUACGGUAC,-2.35 ± 0.095,-1.52 ± 0.14
AUGCAGCAAUAUUACGGUAG,-3.81 ± 0.16,-2.4 ± 0.14
AUGCAGCAAUAUUACGGUCC,-1.85 ± 0.16,-0.88 ± 0.17
AUGCAGCAAUAUUACGUAGU,-1.46 ± 0.088,-0.542 ± 0.089
AUGCAGCAAUAUUACGUGAA,-2.44 ± 0.12,-0.683 ± 0.13
AUGCAGCAAUAUUACGUGCC,-1.08 ± 0.11,-0.869 ± 0.15
AUGCAGCAAUAUUACGUGCG,-0.943 ± 0.061,-0.294 ± 0.076
AUGCAGCAAUAUUACGUUAC,-3.57 ± 0.3,-1.54 ± 0.22
AUGCAGCAAUAUUACGUUAG,-3.05 ± 0.15,-2.38 ± 0.2
AUGGAGCAAUAUUACGAUAG,-3.59 ± 0.4,-1.67 ± 0.32
AUGGAGCAAUAUUACGCAAG,-4.55 ± 0.42,-1.09 ± 0.31
AUGGAGCAAUAUUACGCAUU,-3.12 ± 0.22,-1.84 ± 0.22

Sequence,self-splicing fitness (ln) (30 °C),self-splicing fitness (ln) (37 °C)
AUGGAGCAAUAUUACGCCUA,-0.868 ± 0.14,-0.981 ± 0.18
AUGGAGCAAUAUUACGCGCG,-2.41 ± 0.17,-1.27 ± 0.19
AUGGAGCAAUAUUACGCGUU,-3.93 ± 0.21,-3.05 ± 0.24
AUGGAGCAAUAUUACGGAUG,,-2.29 ± 0.37
AUGGAGCAAUAUUACGGGAC,-5.23 ± 0.41,-2.7 ± 0.25
AUGGAGCAAUAUUACGGGGG,-3.55 ± 0.43,-2.21 ± 0.35
AUGGAGCAAUAUUACGUAAC,-2.91 ± 0.34,-2.29 ± 0.46
AUGGAGCAAUAUUACGUAGC,,-1.93 ± 0.3
AUGGAGCAAUAUUACGUAUA,-1.75 ± 0.45,-2.02 ± 0.36
AUGGAGCAAUAUUACGUCCA,-0.783 ± 0.45,-0.778 ± 0.34
AUGGAGCAAUAUUACGUCCU,-0.886 ± 0.24,-1.35 ± 0.29
AUGGAGCAAUAUUACGUGCG,-3.44 ± 0.32,-1.8 ± 0.23
AUGGAGCAAUAUUACGUUCA,-1.16 ± 0.12,-0.311 ± 0.14
AUGGAGCAAUAUUACGUUGG,-4.65 ± 0.39,-2.35 ± 0.23
AUGUAGCAAUAUUACGAACC,-1 ± 0.18,-0.513 ± 0.22
AUGUAGCAAUAUUACGAAGA,,-0.739 ± 0.21
AUGUAGCAAUAUUACGAAUC,,-2.91 ± 0.29
AUGUAGCAAUAUUACGACUC,0.285 ± 0.12,0.585 ± 0.18
AUGUAGCAAUAUUACGCAGU,-2.49 ± 0.12,-1.29 ± 0.11
AUGUAGCAAUAUUACGCAUU,-3.93 ± 0.18,-2.89 ± 0.23
AUGUAGCAAUAUUACGCCAA,-0.877 ± 0.19,-1.5 ± 0.19
AUGUAGCAAUAUUACGCCCA,-0.905 ± 0.12,-0.148 ± 0.2
AUGUAGCAAUAUUACGCCCU,0.267 ± 0.097,0.0833 ± 0.098
AUGUAGCAAUAUUACGCUCG,-0.227 ± 0.078,0.00954 ± 0.13
